Reference: patent US20210388087A1 (Chugai, published 2021)
Numbering of substitutions follows the chain as printed.

B1: H183/L072 VL H34V (antibody, name in Kabat numbering, V domains shown)
VH: QVQLVESGGGLVQPGRSLRLSCAASGFTFSNAWMHWVRQAPGKGLEWVAQIKDKGNAYAAYYAPSVKGRFTISRDDSKNSIYLQMNSLKTEDTAVYYCHYVHYASASTVLPAFGVDAWGQGTTVTVSS
VL: DIVMTQSPLSLPVTPGEPASISCQASQELVHMNRNTYLVWYQQKPGQAPRLLIYKVSNRFPGVPDRFSGSGSGTDFTLKISRVEAEDVGVYYCAQGTSVPFTFGQGTKLEIK
notes: Dual-Ig
B2: H183/L072 VL K50A (antibody, name in Kabat numbering, V domains shown)
VH: B1 VH
VL: B1 VL with V39H, K55A
notes: Dual-Ig
B3: H183/L072 VL K50D (antibody, name in Kabat numbering, V domains shown)
VH: B1 VH
VL: B1 VL with V39H, K55D
notes: Dual-Ig
B4: H183/L072 VL K50E (antibody, name in Kabat numbering, V domains shown)
VH: B1 VH
VL: B1 VL with V39H, K55E
notes: Dual-Ig
B5: H183/L072 VL K50F (antibody, name in Kabat numbering, V domains shown)
VH: B1 VH
VL: B1 VL with V39H, K55F
notes: Dual-Ig
B6: H183/L072 VL K50G (antibody, name in Kabat numbering, V domains shown)
VH: B1 VH
VL: B1 VL with V39H, K55G
notes: Dual-Ig
B7: H183/L072 VL K50H (antibody, name in Kabat numbering, V domains shown)
VH: B1 VH
VL: B1 VL with V39H, K55H
notes: Dual-Ig
B8: H183/L072 VL K50I (antibody, name in Kabat numbering, V domains shown)
VH: B1 VH
VL: B1 VL with V39H, K55I
notes: Dual-Ig
B9: H183/L072 VL K50L (antibody, name in Kabat numbering, V domains shown)
VH: B1 VH
VL: B1 VL with V39H, K55L
notes: Dual-Ig
B10: H183/L072 VL K50M (antibody, name in Kabat numbering, V domains shown)
VH: B1 VH
VL: B1 VL with V39H, K55M
notes: Dual-Ig
B11: H183/L072 VL K50N (antibody, name in Kabat numbering, V domains shown)
VH: B1 VH
VL: B1 VL with V39H, K55N
notes: Dual-Ig
B12: H183/L072 VL K50P (antibody, name in Kabat numbering, V domains shown)
VH: B1 VH
VL: B1 VL with V39H, K55P
notes: Dual-Ig
B13: H183/L072 VL K50Q (antibody, name in Kabat numbering, V domains shown)
VH: B1 VH
VL: B1 VL with V39H, K55Q
notes: Dual-Ig
B14: H183/L072 VL K50R (antibody, name in Kabat numbering, V domains shown)
VH: B1 VH
VL: B1 VL with V39H, K55R
notes: Dual-Ig
B15: H183/L072 VL K50S (antibody, name in Kabat numbering, V domains shown)
VH: B1 VH
VL: B1 VL with V39H, K55S
notes: Dual-Ig
B16: H183/L072 VL K50T (antibody, name in Kabat numbering, V domains shown)
VH: B1 VH
VL: B1 VL with V39H, K55T
notes: Dual-Ig
B17: H183/L072 VL K50V (antibody, name in Kabat numbering, V domains shown)
VH: B1 VH
VL: B1 VL with V39H, K55V
notes: Dual-Ig
B18: H183/L072 VL K50W (antibody, name in Kabat numbering, V domains shown)
VH: B1 VH
VL: B1 VL with V39H, K55W
notes: Dual-Ig
B19: H183/L072 VL L27bA (antibody, name in Kabat numbering, V domains shown)
VH: B1 VH
VL: B1 VL with L29A, V39H
notes: Dual-Ig
B20: H183/L072 VL L27bD (antibody, name in Kabat numbering, V domains shown)
VH: B1 VH
VL: B1 VL with L29D, V39H
notes: Dual-Ig
B21: H183/L072 VL L27bE (antibody, name in Kabat numbering, V domains shown)
VH: B1 VH
VL: B1 VL with L29E, V39H
notes: Dual-Ig
B22: H183/L072 VL L27bF (antibody, name in Kabat numbering, V domains shown)
VH: B1 VH
VL: B1 VL with L29F, V39H
notes: Dual-Ig
B23: H183/L072 VL L27bG (antibody, name in Kabat numbering, V domains shown)
VH: B1 VH
VL: B1 VL with L29G, V39H
notes: Dual-Ig
B24: H183/L072 VL L27bH (antibody, name in Kabat numbering, V domains shown)
VH: B1 VH
VL: B1 VL with L29H, V39H
notes: Dual-Ig
B25: H183/L072 VL L27bI (antibody, name in Kabat numbering, V domains shown)
VH: B1 VH
VL: B1 VL with L29I, V39H
notes: Dual-Ig
B26: H183/L072 VL L27bK (antibody, name in Kabat numbering, V domains shown)
VH: B1 VH
VL: B1 VL with L29K, V39H
notes: Dual-Ig
B27: H183/L072 VL L27bM (antibody, name in Kabat numbering, V domains shown)
VH: B1 VH
VL: B1 VL with L29M, V39H
notes: Dual-Ig
B28: H183/L072 VL L27bP (antibody, name in Kabat numbering, V domains shown)
VH: B1 VH
VL: B1 VL with L29P, V39H
notes: Dual-Ig
B29: H183/L072 VL L27bQ (antibody, name in Kabat numbering, V domains shown)
VH: B1 VH
VL: B1 VL with L29Q, V39H
notes: Dual-Ig
B30: H183/L072 VL L27bS (antibody, name in Kabat numbering, V domains shown)
VH: B1 VH
VL: B1 VL with L29S, V39H
notes: Dual-Ig
B31: H183/L072 VL L27bT (antibody, name in Kabat numbering, V domains shown)
VH: B1 VH
VL: B1 VL with L29T, V39H
notes: Dual-Ig
B32: H183/L072 VL L27bV (antibody, name in Kabat numbering, V domains shown)
VH: B1 VH
VL: B1 VL with L29V, V39H
notes: Dual-Ig
B33: H183/L072 VL L27bW (antibody, name in Kabat numbering, V domains shown)
VH: B1 VH
VL: B1 VL with L29W, V39H
notes: Dual-Ig
B34: H183/L072 VL L33A (antibody, name in Kabat numbering, V domains shown)
VH: B1 VH
VL: B1 VL with L38A, V39H
notes: Dual-Ig
B35: H183/L072 VL L33E (antibody, name in Kabat numbering, V domains shown)
VH: B1 VH
VL: B1 VL with L38E, V39H
notes: Dual-Ig
B36: H183/L072 VL L33F (antibody, name in Kabat numbering, V domains shown)
VH: B1 VH
VL: B1 VL with L38F, V39H
notes: Dual-Ig
B37: H183/L072 VL L33G (antibody, name in Kabat numbering, V domains shown)
VH: B1 VH
VL: B1 VL with L38G, V39H
notes: Dual-Ig
B38: H183/L072 VL L33H (antibody, name in Kabat numbering, V domains shown)
VH: B1 VH
VL: B1 VL with L38H, V39H
notes: Dual-Ig
B39: H183/L072 VL L33I (antibody, name in Kabat numbering, V domains shown)
VH: B1 VH
VL: B1 VL with L38I, V39H
notes: Dual-Ig
B40: H183/L072 VL L33M (antibody, name in Kabat numbering, V domains shown)
VH: B1 VH
VL: B1 VL with L38M, V39H
notes: Dual-Ig
B41: H183/L072 VL L33N (antibody, name in Kabat numbering, V domains shown)
VH: B1 VH
VL: B1 VL with L38N, V39H
notes: Dual-Ig
B42: H183/L072 VL L33P (antibody, name in Kabat numbering, V domains shown)
VH: B1 VH
VL: B1 VL with L38P, V39H
notes: Dual-Ig
B43: H183/L072 VL L33Q (antibody, name in Kabat numbering, V domains shown)
VH: B1 VH
VL: B1 VL with L38Q, V39H
notes: Dual-Ig
B44: H183/L072 VL L33T (antibody, name in Kabat numbering, V domains shown)
VH: B1 VH
VL: B1 VL with L38T, V39H
notes: Dual-Ig
B45: H183/L072 VL L33V (antibody, name in Kabat numbering, V domains shown)
VH: B1 VH
VL: B1 VL with L38V, V39H
notes: Dual-Ig
B46: H183/L072 VL L33W (antibody, name in Kabat numbering, V domains shown)
VH: B1 VH
VL: B1 VL with L38W, V39H
notes: Dual-Ig

target: T1, Human CD137 ECD (human); test: Biacore SPR, vs parent H183/L072
T1 construct: entry includes C-terminal His-tag and biotin acceptor peptide; also called human CD137 extracellular domain; 4-1BB
T1 sequence (chain, as listed by the source limits assumed): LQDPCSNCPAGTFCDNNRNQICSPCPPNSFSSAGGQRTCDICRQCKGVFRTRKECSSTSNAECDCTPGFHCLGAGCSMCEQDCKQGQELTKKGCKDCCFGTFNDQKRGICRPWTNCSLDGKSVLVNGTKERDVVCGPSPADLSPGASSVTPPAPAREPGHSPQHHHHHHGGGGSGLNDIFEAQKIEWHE

Binder | fold change of affinity [fold]
B1 | 0
B2 | 0.1
B3 | 0
B4 | 0
B5 | 0.1
B6 | 0
B7 | 0
B8 | 2.5
B9 | 1
B10 | 2.9
B11 | 0.4
B12 | 0
B13 | 0.2
B14 | 1.7
B15 | 0
B16 | 0.2
B17 | 0.3
B18 | 0
B19 | 0.4
B20 | 0.2
B21 | 0.2
B22 | 0.3
B23 | 0.1

Binder | fold change of affinity [fold]
B24 | 0.3
B25 | 1.1
B26 | 0.3
B27 | 0.4
B28 | 0.8
B29 | 0.2
B30 | 0.3
B31 | 0.4
B32 | 1.1
B33 | 0.3
B34 | 0.9
B35 | 0.1
B36 | 0.3
B37 | 0.1
B38 | 0.9
B39 | 0.1
B40 | 0.9
B41 | 0.1
B42 | 0.2
B43 | 1.4
B44 | 0.2
B45 | 0.6
B46 | 0.1
